Experimental data as given in patent publication US20210238276A1 (INTEGRAL MOLECULAR, published 2021).
Like-named read-outs stand apart in the source and are kept apart here.

T1: human GLUT4 (hsGLUT4), wild type (UniProt P14672 1-509)
T1 chain: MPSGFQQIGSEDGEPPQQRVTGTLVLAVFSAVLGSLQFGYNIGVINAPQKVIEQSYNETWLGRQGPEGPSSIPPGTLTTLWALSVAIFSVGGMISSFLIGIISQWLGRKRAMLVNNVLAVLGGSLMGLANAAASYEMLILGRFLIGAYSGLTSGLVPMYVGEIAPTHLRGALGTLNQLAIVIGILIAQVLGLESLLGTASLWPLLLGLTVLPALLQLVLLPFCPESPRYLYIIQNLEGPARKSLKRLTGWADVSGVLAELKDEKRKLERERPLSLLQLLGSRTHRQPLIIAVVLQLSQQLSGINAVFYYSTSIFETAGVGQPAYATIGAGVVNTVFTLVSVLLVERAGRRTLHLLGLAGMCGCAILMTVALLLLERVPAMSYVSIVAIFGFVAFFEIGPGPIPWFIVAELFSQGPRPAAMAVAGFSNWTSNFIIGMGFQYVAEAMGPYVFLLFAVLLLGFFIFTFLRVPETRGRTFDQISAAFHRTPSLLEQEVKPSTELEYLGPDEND

T2: mouse GLUT4 (mmGLUT4) (mouse, UniProt P14142 1-509)
T2 construct: whole, on cells; Also tested as endogenous protein in murine 3T3-L1 adipocytes; also called endogenous GLUT4 of 3T3-L1 adipocytes
T2 sequence (looked up): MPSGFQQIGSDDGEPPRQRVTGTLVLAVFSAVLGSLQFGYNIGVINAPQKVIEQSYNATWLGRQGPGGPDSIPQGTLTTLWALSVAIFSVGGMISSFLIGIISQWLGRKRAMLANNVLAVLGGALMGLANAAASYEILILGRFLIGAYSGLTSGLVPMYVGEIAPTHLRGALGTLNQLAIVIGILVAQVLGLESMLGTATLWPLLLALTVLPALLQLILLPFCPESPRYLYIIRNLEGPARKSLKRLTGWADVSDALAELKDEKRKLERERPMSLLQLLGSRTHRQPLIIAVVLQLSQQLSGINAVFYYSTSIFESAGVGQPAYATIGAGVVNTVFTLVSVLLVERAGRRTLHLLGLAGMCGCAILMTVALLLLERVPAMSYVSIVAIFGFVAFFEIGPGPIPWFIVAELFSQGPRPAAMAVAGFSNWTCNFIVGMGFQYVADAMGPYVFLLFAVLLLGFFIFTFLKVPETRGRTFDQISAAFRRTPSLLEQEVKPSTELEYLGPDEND

T3: mouse GLUT1 (mmGLUT1) (mouse, UniProt P17809 1-492)
T3 construct: whole, on cells
T3 sequence (looked up): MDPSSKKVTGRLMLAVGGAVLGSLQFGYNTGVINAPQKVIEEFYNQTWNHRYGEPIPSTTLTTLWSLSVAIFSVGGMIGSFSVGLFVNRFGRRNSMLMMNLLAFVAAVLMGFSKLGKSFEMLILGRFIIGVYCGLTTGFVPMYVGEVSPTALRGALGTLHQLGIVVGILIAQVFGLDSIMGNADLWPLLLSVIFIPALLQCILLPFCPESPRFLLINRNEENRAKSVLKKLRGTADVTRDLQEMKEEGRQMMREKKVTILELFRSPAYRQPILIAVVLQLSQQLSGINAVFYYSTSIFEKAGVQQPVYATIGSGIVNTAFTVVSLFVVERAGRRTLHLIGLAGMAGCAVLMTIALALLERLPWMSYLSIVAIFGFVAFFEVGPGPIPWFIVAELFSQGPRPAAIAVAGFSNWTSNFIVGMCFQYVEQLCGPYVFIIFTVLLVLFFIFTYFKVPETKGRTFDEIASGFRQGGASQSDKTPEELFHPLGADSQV


Columns and labels:
[1] = target: T1, human GLUT4 (hsGLUT4), wild type; test: BLI; avid
[2] = target: T1, human GLUT4 (hsGLUT4), wild type; test: BLI; avid
[3] = target: T2, mouse GLUT4 (mmGLUT4); test: immunofluorescence, permeabilized 3T3-L1 adipocytes (data not shown)
Method: Adipocytes, between 7-8 days post-differentiation, were serum-starved for 3 hours in Dulbecco's modified Eagle's medium with […] bicarbonate and 20 mM HEPES pH 7.4, prior to stimulation for 20 minutes at 37° C. with or without 170 nM human insulin (Sigma Aldrich) prepared in the same media with 2% BSA. Adipocytes were washed twice with ice-cold PBS with calcium and magnesium (PBS+/+) and remained on ice for all subsequent steps.
Adipocytes were blocked with 10% Normal Goat Serum (NGS) in PBS+/+ for 30 minutes on ice before adding test antibodies at 10 ug/ml in 10% NGS. Primary antibodies were incubated for 2 hours, then washed 2× with PBS+/+. Cells were subsequently fixed for 5 minutes in 4% paraformaldehyde (PFA), washed 2× with PBS+/+, and then stained with secondary antibody (AF488 conjugated Goat anti-human, Jackson Immunoresearch) diluted 1:200 in 10% NGS. Secondary antibody was incubated for 1 hour, after washing 3× with PBS+/+. For intracellular staining, cells were fixed prior to the blocking step and permeabilized with 10% NGS containing 0.2% Saponin. The 1F8 antibody was used at 1 μg/ml, and detected using AF647-conjugated goat anti-mouse secondary antibody diluted 1:400 (Jackson Immunoresearch). Alexafluor 488 was visualized using the B-2EC cube with an exposure time of 1.5 seconds. Alexafluor 647 was visualized using the Cy5 cube with an exposure time of 2 seconds.

[4] = target: T3, mouse GLUT1 (mmGLUT1); test: flow cytometry, permeabilized transfected HEK-293T
Method: HEK-293T cells were transfected by CaPO₄ with plasmids in 6-well culture plates (Falcon) at 750,000 cells/well. At 48 hours post transfection, cells were stained with anti-V5 and anti-GLUT4 MAbs (purified scFv, 2 μg/ml) followed by biotinylated goat anti-mouse or human antibody (1:500) and streptavidin-PerCP (1:500). Fluorescence was detected using an Intellicyt high-throughput flow cytometer (HTFC; Intellicyt, Albuquerque, N. Mex.). For cell permeabilization, cells were treated with saponin at 0.1% in PBS for 20 minutes. To discriminate intact (live) and permeabilized (dead) cells without the use of detergent, propidium iodide (PI) was added to HEK-293T cells at 1 ug/ml just prior to flow cytometry. Where indicated, cytochalasin B (Sigma) was used at a final concentration of 10 uM and phloretin (Sigma) was used at a final concentration of 100 uM, each added in 10% NGS for 30 minutes prior to antibody staining as well as included with the primary antibody.

Binder | Kd [1] [nM] | Kd [2] [nM] | binding result [3] | binding result [4]
AB111 (Fc fusion, Bivalent scFv-Fc; also called MAb AB111; not shown: Fc fragment of human IgG1, cloned in frame with the scFv) scFv: ALTQPSSVSANPGETVKITCSGSGSWYGWFQQKSPGSAPVTVIYSNDKRPSDIPSRFSGSKSGSTSTLTITGVQVEDEAVYYCGNWDIFGAGTTLTVLGQSSRSSGGGGSSGGGGSAVTLDESGGGLQTPGGALSLVCKASGFTFSSHGMGWVRQAPGKGLEWVASISTGRYTFYAPAVKGRATISRDNGQSTVRLQLNNLRAEDTATYYCTKCAGLNGCGGGEIDAWGHGTEVIVSS | 0.56 | 0.56 | binds | 
AB102 (Fc fusion, also called MAb AB102; not shown: Fc fragment of human IgG1, cloned in frame with the scFv) scFv: ALTQPSSVSANLGGTVKITCSGGGSYGYGWYQQKSPGSAPVTVIYSNDQRPSDIPSRFSGSKSGSTATLTITGVRAEDEAIYYCGSTDSDYVGIFGAGTTLTVLGQSSRSSGGGGSSGGGGSAVTLDESGGGLQTPGGTLSLVCKASGFDFSSYATIWVRQAPGKGLEWVAGISGTGTGSSTGYAPAVKGRATISRDNGQSTVRLQLNNLRAEDTGSYFCAKSTGYGDSWIYPDSIDAWGHGTEVIVSS |  |  | binds | binds
AB108 (Fc fusion, Bivalent scFv-Fc; also called MAb AB108; not shown: Fc fragment of human IgG1, cloned in frame with the scFv) scFv: ALTQPSSVSANLGGTVKITCSGSSGSYGWYQQKAPGSAPVTLIYRNDKRPSDIPSRFSGSESGSTGTLTITGVQAEDEAVYFCGGYDSSAGYAAFGAGTTLTVLGQSSRSSGGGGSSGGGGSAVTLDESGGGLQTPGGALSLVCKASGFTFSSHGMGWVRQAPGKGLEWVGSISTGRYTFYAPAVKGRATISRDNGQSTLRLQLNNLRAEDTGTYYCTKCAGLNGCGGGEIDAWGHGTEVIVSS | 1.8 | 1.8 |  | 
